In the DeepSol protein solubility set:

Assay: soluble on expression in E. coli; label from the status in PepcDB or PDB records

Sequence	soluble on expression in E. coli
MDWQNRFSVLNLSSHDPLPELMLTHLTGWGAITLVGADKKAYLQGQVTCNVVSLQEQQVTFGAHCDAKGKVWSVFRLFHHHDGYAMFQPQSAMEVELRELKKYAIFSKVTIAESSDIALGVMGSQADAWIDTVSETTGDVRRIAGGTAVRMSPQRWLLLVNAEQAEQYVNAWQGLHVEQSLWTRMDIEEAVPVVTQTAQNEHIPQALNVQAVDGISFTKGCYTGQETVARAKYRGINKRAMYIVKGNLSAPLSQDEPVVLERAVGENWRSAGALLTHYRFTDSIAIGLIVLPNDLEHDVKLRLAAQPDTRWHIQPLPYSLSDELEHHHHHH	soluble
YQWLPNIGSGEAGADWGLRLTSRDMGKFGLMWLNKGQYNGTKIVGEEWLNELRKSKFYSYEMGYGLHFWQVSNVENGVAAVGIGEQYIVAIPNKNAVIVTTAGNYETRSRPVLTLIQQLSSLL	not soluble
MGSDKIHHHHHHMKIHPIPPLQCLVFFDAAARHGNFTRAAEELNVTQGAVSKQVVKLESYLGMQLFVRDAKALHLTRAGQTYAGRIHDMLTGCAEATALVMKEPSPHSITIACASGTAGMFLTPIIADFSHEYPNVAIRILVREGVFNLNPAEFDIGVYYIRDVPPPGMSGIRIIEEEVQAYCAPSYLGRRRVSPHELTNVTLLVAEEQQRQWMSWRDWFHLCDSEIAYKPSRTITANSYPVLLQLALRGHGVLLGWNQMITPLVERSDLVLASDASASFGGAYQLVWPDDRRDTAAVTHFREWLLKRVPWKG	not soluble
MGSDKIHHHHHHMKLGTQNQAFFPENIEEKFAYVKEMGFEGFEIDGKLLVENLDEVKKAIEKTGLPVSTACGGYDGWIGDFIEERRLNGLEEIKAILEALAEVGGQGIVVPAAWGMFTYRLPPMVSPRSQAGDFKAVSESLVYLDKIAGETGTKVYLEPLNRYQDHMINLLSDAQKYIDENELKNVEIIADFYHMNIEEDSIPTVLETYKDSIGHIHVADNHRYQPGSGSLDFKTSFDQLKKNGYNGFLTFECRVRSENPEQAYKDALAHLKSCLI	not soluble
MNSNSLSRFTSIVRTTSIRGFHDRSSVPRVVDDREKSSAKYNDAGYTFRYHQQGVDPLPRIPDCKVPVARPAYKVRDQWSDEAARFGQNDYIDLLGDGSVHPAQLQYHTPTWLRGFPGQHKANELIKLIHYRNLYDAKLKQNSPKRWHELRKRIKYLMMQHNYNKQDEIGRERNLGLWEEEPDYTYKDKSRRSFKDEIH	not soluble
MGSDKIHHHHHHMNRDYVCSEMFCMGTIISQKIYGEDKKEVLFKVENEMRRLEKAMNFYSSSSEISKLNKFGFENEIKLSKDVYHVIKNAKNFSKKTLGAFDISLAPIIKLWGIFCENERVPSVKEIEKNLSLVNYKNLVLNDYKRTVKFLVEDMKVDLGGIAKGYAADRAIDIYKGGGVKSASINLGGNVSVIGEKPDGKSWCIGVQNPLKKRGEIIGAISVKNKSVVTSGSYVRYFEKDNIKYHHIIDPKTGYPAKEELLSVTVIFENSMLCDAVSTAAFIAGADGGIELVKRFRDVEAIFITKDRKVIITKGIAKSFSLVEESGFQYL	not soluble
MSIRFARKADCAAIAEIYNHAVLYTAAIWNDQTVDADNRIAWFEARTLAGYPVLVSEENGVVTGYASFGDWRSFDGFRHTVEHSVYVHPDHQGKGLGRKLLSRLIDEARDCGKHVMVAGIESQNQASLHLHQSLGFVVTAQMPQVGTKFGRWLDLTFMQLQLDERTEPDAIG	soluble
MQKETWRFIDSGNASPAFNMALDEALLYWHSEKKIPPVIRFYGWNPATLSVGYFQNIKKEINFEAVHKYNLGFVRRPTGGRGVLHDQELTYSVIVSEEHPEMPATVTEAYRVISEGILQGFRNLGLDAYFAIPRTEKEKESLKNPRSSVCFDAPSWYELVVEGRKVAGSAQTRQKGVILQHGSILLDLDEDKLFDLFLYPSERVRERMQRNFKNKAVAINELIEKRVTMDEARKAFKEGFETGLNIHLEPYELSQEELDFVHHLAETKYASDEWNYKRMAGDPLEHHHHHH	not soluble
MSLGTLASLHLNSGDAHHKQRTVTILEFSSSLKLVYKPRSLKVDGVFNGLLAFLNDRTGEVIKDQYCPKVLQRDGYGYVEFVTHQSCQSLEEVSDFYERLGSLMSLSYVLNSSDFHFENIIAHGPYPVLIDLETIIHNTADSSEETSTAMDRAFRMLNDSVLSTGMLPSSIYYRDQPNMKGLNVGGVSKSEGQKTPFKVNQIANRNTDEMRIEKDHVTLSSQKNLPIFQSAAMESVHFLDQIQKGFTSMYQWIEKNKQEFKEQVRKFEGVPVRAVLRSTTRYTELLKSSYHPDLLRSALDREVLLNRLTVDSVMTPYLKEIIPLEVEDLLNGDVPYFYTLPEERALYQEASAINSTFFTTSIFHKIDQKIDKLGIEDHTQQMKILHMSMLASNANHYADVADLEGHHHHHH	not soluble
MNPNFLDFEQPIADLQAKIEELRLVGNDNALNISDEISRLQDKSKALTENIFGNLSSWQIAQLARHPKRPYTLDYIGYLFSDFEELHGDRHFADDPAIVGGVARLDGSPVMVIGHQKGREVREKVRRNFGMPRPEGYRKACRLMEMAERFKMPILTFIDTPGAYPGIDAEERGQSEAIAWNLRVMARLKTPIIATVIGEGGSGGALAIGVCDQLNMLQYSTYSVISPEGCASILWKTAEKAPEAAEAMGITAERLKGLGIVDKVIDEPLGGAHRDPASMAESIRGELLAQLKMLQGLEMGELLERRYDRLMSYGAP	not soluble
MGSDKIHHHHHHVTDSDSQPVNEFPIAPPAPRKGRGAVTNLQGRYEVDQREAIDDGWLSLAEDDDEPKVLRTQVFEERAKTILTRNASPDIPFGVSLNPYRGCEHGCIYCFARPTHSYLGLSPGLDFESRIYAKVNAPELLERELSKKSYVPEPIALGVNTDAWQPAERDLQLTRRVIEVLSERHHPFAAITKSSLIERDLDLLAPMAARGQFMAAITITTLDAGIARTLEPRAATPSRRLRTIRTLSEAGIPVGVSIAPVIPFVTEPDMERVLEACAEAGASNASYIVLRLPWEVAPLFKDWLAAYFPDRAERVMGRVRDMRGGKDYDSSFSTRMKGEGLWADLLKQRFHKAVRRLGLNRRDRGILDMSHFRRIEPPRAGQPARNDSQLDLF	not soluble
MMSMKIFETTAPHPEASLLTAFSKNALDRFAEKRTEECVAEALKVDGTHIFAFSGNRLVLKHDEQVIDPLFSAYELAELQPDFDNAVLLGYRETGEPRIAVPVAVAEDQLASHYKLADARTLYRDHLLDEELLSEVAQAVSLTHWNADNRFCGRCGGTMEQRIGGYKRICASCSHTIFPRTDPVVIMMTIDIERDLCLLGRGAHFASGMYSCLAGFVEPGETIEQAVRRETHEESGVEIGRVRYHASQPWPMPHTLMIGCYAEALSSDIARDEIELEDCRWFTREEVAKMLEAPAGEGFSAPPIGAIAHRLMRDWVEWPE	soluble
DIKVTPGTSELVEQILALLSRYLSSYIHVLNKFISHLRRVATLRFERTTLIKFVKKLRFYNDSVLSYNASEFINEGKNELDPEADSFDKVILPIASMFVKSVETFDLLNYYLTQSLQKEILSKTLNEDLTLTAESILAIDDTYNHFVKFSQWMIESLRIGSNLLDLEVVQFAIKSADEDGTNIGETDNIFLQEILPVNSEEEFQTLSAAWHSILDGKLSALDEEFDVVATKWHD	soluble
MGSDKIHHHHHHMLMESVVSVFDPDLTHLPAVAHRLQFSDPESEVPLHVHRKGQLILALHGAVTCTAGNEIWIVPPNCGVWIPGGVPHSARATANAQLNYLFVEPEAANLPGSSCTLAISPLIREMVERLAEERADYLADSHAARIARVLLDELADMPRERFNLPISSHPKIRAIADALTAEPSDRRTLSDWAKQVAMSERSLARLLIRETGLTFGRWRQQLHLVVALRELASGEAVQNVAAGLGYESVNAFITMFKKALGSTPAQYFAQRHAPTKAGSGEQNRV	not soluble
MSLLLIKNGKIITMTGKNYDKGCVLIDNGKIVDVNENIKENKYMKVIDASNFTVIPGIIDAHCHIGIDEQDIGKVGLDINEVSNPVTPNLRAIDAINPMDSAFNDAVMGGITGVMTGPGSANVIGGQFVFMKTYGKCIDDMVVLEPAAVKAALGENPKRVYGGKGKAPVTRMAIAALLREALTEAENYKNKKEALKAKGERIEKNLKLEALIPVIEGNIPLKVHAHRADDILTAIRIAKEFKINITLDHCTEGHLIPEKVKESGYPVLVGPSLTSRSKSEVSNKTFKTPGVLANMGIKTAIITDHPVIPIQYLPICAGLSCREGMKVEDALYAITLNAAEICGVASRLGSIEKGKDADIAIFDGNPMEVFTKTIYTIIDGNIVYKHECYEGHHHHHH	soluble
MTSRSNSGPGIQRRRGAIKHARVHEIRGHQFVATFFRQPHFCSLCSDFMWGLNKQGYQCQLCSAAVHKKCHEKVIMQCPGSAKNTKETMALKERFKVDIPHRFKTYNFKSPTFCDHCGSMLYGLFKQGLRCEVCNVACHHKCERLMSNLCGVNQKQLSEMYHEIKRGTHATASCPPNIANLHLNGETSKNNGSLPNKLKNLFKSHQYSVEEQKETDEYMDNIWGGGDGPVKKFALPHFNLLKVLGKGSFGKVMLVELKGKNEFYAMKCLKKDVILEDDDTECTYIERRVLILASQCPFLCQLFCSFQTNEYLFFVMEYLNGGDLMHHIQQIKKFDEARTRFYACEIVVALQFLHTNNIIYRDLKLDNVLLDCDGHIKLADFGMAKTEMNRENGMASTFCGTPDYISPEIIKGQLYNEAVDFWSFGVLMYEMLVGQSPFHGEGEDELFDSILNERPYFPKTISKEAAKCLSALFDRNPNTRLGMPECPDGPIRQHCFFRGVDWKRFENRQVPPPFKPNIKSNSDASNFDDDFTNEKAALTPVHDKNLLASIDPEAFLNFSYTNPHFSK	not soluble
MTGSQVIDAEEDRHKLVVEYKDALQPADFYHNFKQRGIRSVQLIPYLEFDDRGDLTAASVTAELWGKFLIALFECWVRADISRISIELFDATLQKWCGSENPQPRCDCQACDWHRLCPHARQETPDSVLCAGYQAFYSYSAPHMRVMRDLIKQHRSPMELMTMLR	not soluble
MGSDKIHHHHHHARPLSDVLNDVAARFQVRLKYDVDTVGRVLPYADFRIRPYSLEETLTNVLSPFDYKFVKQSDKVYKLKPYEYARRTDADGEKMLAYLSGLYSDKSQWEQRREILRKEVRQRLGLDDMLGKTVKDAKPVLSKIRKFDGYTVQNFALETLPGLYVCGSVYAPRTKGKHALIICPNGHFGQGRYRKDQQQRMATLARMGAVCVDYDLYGWGESALQVGGKAHHTADAHTIQAMNGIWILDYMLANRKDIDPACIGVNGGSGGGTQTVLLTVLDDRFTAAAPVVSLASHFDGGCPCESGKPIQLAGGGTCNAELAALFAPRPMLVVSDGGDWTATVPRLEYPYLQRIYGFYGATDKVSNVHLPQERHDFGPNKRNAVYDFFIDVFGLDRNMLDESKVTIEPEDALKSFGEKGEKLPAGALRYKE	not soluble
MGSDKIHHHHHHMGFIEVQQQFMDYIRDPSLPLPEGIEPRRMKIYRELFFNNIAGFVSSAFPVLKSVYEDDQWQALVQQFFVSHDCKTPIFVEIAGEFLAFLQHEYQMTEDDPVFMLQLAHYEWLELCVAVAPDTPAAQSINTIELNLHRLCLAACAKVAQYAFDVQHISVDYQPIEPTAQANFFCVFRGADDEVAFLQLTPLSAQVLAYIEQMTHSQQGVTVDAIISWLSEHYPQMPNDTLLSGCLPLLQQLAQKGIVISSIES	not soluble
MGSDKIHHHHHHLTKKITEFQNDEEMELFVLIKSAEKRVTKAGKDFISMKFQDRSGDIHGNCWDAKEEDFKNFQPGRVVLLRGKRETYKNAPQVKIMAMRLATDEEPNDPTAYTEKGPVSAEKLREEFTQLMFEINNPDWNRVVRYLLKKYDREFFSFPAAKTNHHAFEGGLAFHTLSIVNLAKSVAAQYEQVDQSLLIAGAILHDLGKTIELSGPIATQYTVEGNLLGHIVIVDEEIVEAAKDLKIDPSSESMVVLRHMIVAHHGLKEYGSPVEPHMLEAVILHALDELDAEIQMVSGALKNTQPGAFSERIFGMDGRNFYKPESK	not soluble
